Measured values taken from patent publication US20260166140A1, “Combinations Involving Epidermal Growth Factor Receptor Tyrosine Kinase Inhibitors For the Treatment of Cancer” (AstraZeneca AB, priority 2022, published 2026).
Substitutions are numbered along the chain they refer to.

B1: B09-57 IgG (antibody, V domains shown)
VH: QVQLVQSGAEVKKPGASVKVSCKASGYTFTDYYIHWVRQATGQGLEWMGWMNPNSGNTGYAQKFQGRVTMTRDTSISTAYMELSSLRSEDTAVYYCARGQGYTHSWGQGTMVTVSS
VL: DIQMTQSPSTLSASVGDRVTITCRASEGIYHWLAWYQQKPGKAPKLLIYKASSLASGVPSRFSGSGSGTEFTLTISSLQPDDFATYYCQQYSNYPPTFGGGTKLEIK
notes: also called B09-GL; cMET IgG B09
B2: RAA22 IgG (antibody, V domains shown)
VH: QVQLVQSGAEVKKPGSSVKVSCKASGGTFSDNDFSWVRQAPGQGLEWMGAIVAVFRTETYAQKFQDRVKITADISTRTTYMELSSLRSEDTAVYYCARRLMSAISGPGAPLLMWGQGTLVTVSS
VL: QSALTQPRSVSGSPGQSVTISCTGTSSDVGGYNYVSWYQQHPGKAPKLMIYDVSKRPSGVPDRFSGSKSGNTASLTISGLQAEDEADYYCSSYTSSDTLEIFGGGTKLTVL
B3: QD6 IgG (antibody, V domains shown)
VH: B2 VH with F55V
VL: B2 VL with K55E, S91F
notes: also called anti-EGFR antibody clone QD6

Columns and labels:
[1] = molecular target: T1, Cynomolgus monkey cMET (recombinant, soluble monomeric) (cynomolgus monkey, UniProt A0M8R7 25-932 (Papio anubis entry)); assay: SPR, Biacore T200, antibody captured on anti-human IgG, soluble monomeric antigen as analyte, 25 C
T1 construct: also called cyno cMET

[2] = molecular target: T2, Human cMET (recombinant, soluble monomeric) (human, UniProt P08581 25-932); assay: as above
T2 construct: in the HTRF assay it is called the human cMET receptor; also called His-tagged cMET antigen

[3] = molecular target: T3, Mouse EGFR (recombinant, soluble monomeric) (mouse, UniProt Q01279 25-647); assay: ELISA: antigen coated at 1 ug/mL, antibody dilution series, goat anti-human Fab-HRP, A450; panel Mouse EGFR
T3 construct: also called murine EGFR

[4] = molecular target: Mouse cMET (recombinant) (mouse, UniProt P16056 25-929, limits assumed); assay: ELISA: antigen coated at 1 ug/mL, antibody dilution series, goat anti-human Fab-HRP, A450; panel Mouse cMET
[5] = molecular target: T4, HER2 (UniProt P04626 23-652, limits assumed); assay: ELISA: antigen coated at 1 ug/mL, antibody dilution series, goat anti-human Fab-HRP, A450; panel Human HER2
T4 construct: also called EGFR HER family protein HER2

[6] = molecular target: T5, HER3 (UniProt P21860 20-643, limits assumed); assay: ELISA: antigen coated at 1 ug/mL, antibody dilution series, goat anti-human Fab-HRP, A450; panel Human HER3
T5 construct: also called EGFR HER family protein HER3

[7] = molecular target: T6, HER4 (UniProt Q15303 26-649, limits assumed); assay: ELISA: antigen coated at 1 ug/mL, antibody dilution series, goat anti-human Fab-HRP, A450; panel Human HER4
T6 construct: also called EGFR HER family protein HER4
T6 sequence (looked up): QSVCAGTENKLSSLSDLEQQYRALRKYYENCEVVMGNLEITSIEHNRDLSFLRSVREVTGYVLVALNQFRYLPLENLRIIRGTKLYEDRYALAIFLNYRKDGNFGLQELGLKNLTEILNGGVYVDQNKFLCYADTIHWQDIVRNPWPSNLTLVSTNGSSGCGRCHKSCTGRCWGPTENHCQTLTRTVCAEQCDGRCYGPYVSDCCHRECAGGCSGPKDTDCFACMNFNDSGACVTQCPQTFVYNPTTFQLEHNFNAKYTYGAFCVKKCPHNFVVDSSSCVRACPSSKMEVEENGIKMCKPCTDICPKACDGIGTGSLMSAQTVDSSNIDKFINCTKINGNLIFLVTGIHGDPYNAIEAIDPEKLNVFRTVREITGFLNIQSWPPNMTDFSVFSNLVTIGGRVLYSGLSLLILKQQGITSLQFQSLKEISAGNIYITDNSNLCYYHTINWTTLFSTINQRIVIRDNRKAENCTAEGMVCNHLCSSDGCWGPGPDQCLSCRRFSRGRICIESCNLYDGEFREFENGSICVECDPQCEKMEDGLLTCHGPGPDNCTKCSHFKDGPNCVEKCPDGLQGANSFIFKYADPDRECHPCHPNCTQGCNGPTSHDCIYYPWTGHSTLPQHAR

[8] = molecular target: T7, Semaphorin 3a (UniProt Q14563 21-771, limits assumed); assay: ELISA: antigen coated at 1 ug/mL, antibody dilution series, goat anti-human Fab-HRP, A450; panel Human Sema3a
T7 construct: also called Sema 3a
T7 sequence (looked up): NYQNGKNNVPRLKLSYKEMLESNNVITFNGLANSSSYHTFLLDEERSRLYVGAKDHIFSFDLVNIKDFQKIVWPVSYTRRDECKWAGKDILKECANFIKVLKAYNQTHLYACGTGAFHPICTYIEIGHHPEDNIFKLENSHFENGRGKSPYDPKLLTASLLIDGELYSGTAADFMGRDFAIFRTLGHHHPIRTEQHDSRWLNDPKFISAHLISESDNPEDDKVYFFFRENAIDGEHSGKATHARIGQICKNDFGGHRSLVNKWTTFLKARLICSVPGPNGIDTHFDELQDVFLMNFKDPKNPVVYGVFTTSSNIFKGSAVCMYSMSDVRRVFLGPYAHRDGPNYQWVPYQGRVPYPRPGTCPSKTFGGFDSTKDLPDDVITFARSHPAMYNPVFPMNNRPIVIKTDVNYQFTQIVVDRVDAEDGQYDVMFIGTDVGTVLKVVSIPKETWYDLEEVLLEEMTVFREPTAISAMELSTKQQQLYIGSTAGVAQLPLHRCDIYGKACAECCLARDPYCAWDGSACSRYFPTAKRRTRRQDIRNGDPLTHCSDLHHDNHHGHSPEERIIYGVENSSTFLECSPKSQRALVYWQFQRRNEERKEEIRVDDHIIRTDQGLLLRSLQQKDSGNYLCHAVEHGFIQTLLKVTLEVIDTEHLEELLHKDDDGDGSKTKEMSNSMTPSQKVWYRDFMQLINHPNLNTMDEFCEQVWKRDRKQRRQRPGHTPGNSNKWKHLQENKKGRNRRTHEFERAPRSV

[9] = molecular target: T8, Cynomolgus monkey EGFR (recombinant, soluble monomeric) (cynomolgus monkey, UniProt P55245 25-645 (rhesus entry)); assay: ELISA: antigen coated at 1 ug/mL, antibody dilution series, goat anti-human Fab-HRP, A450; panel Cynomolgus EGFR
T8 construct: also called cyno EGFR

[10] = molecular target: Ron (CD136) (UniProt Q04912 25-957, limits assumed); assay: ELISA: antigen coated at 1 ug/mL, antibody dilution series, goat anti-human Fab-HRP, A450; panel Human Ron (CD136)
[11] = molecular target: T9, Human EGFR (recombinant, soluble monomeric) (human, UniProt P00533 25-645); assay: Octet biolayer interferometry, antigen capture format: His-tagged human cMET on NI-NTA sensors, then antibody (66 nM), then human EGFR (500 nM)
T9 construct: also called EGFR antigen

[12] = molecular target: T9, Human EGFR (recombinant, soluble …); assay: SPR, Biacore T200, antibody captured on anti-human IgG, soluble monomeric antigen as analyte, 25 C
[13] = molecular target: T8, Cynomolgus monkey EGFR (recombinant, …); assay: as above
[14] = molecular target: T3, Mouse EGFR (recombinant, soluble …); assay: as above
[15] = molecular target: T2, Human cMET (recombinant, soluble …); assay: ELISA: antigen coated at 1 ug/mL, antibody dilution series, goat anti-human Fab-HRP, A450; panel Human cMET
[16] = molecular target: T1, Cynomolgus monkey cMET (recombinant, …); assay: ELISA: antigen coated at 1 ug/mL, antibody dilution series, goat anti-human Fab-HRP, A450; panel Cynomolgus cMET
[17] = molecular target: T2, Human cMET (recombinant, soluble …); assay: Octet biolayer interferometry, antigen capture format: His-tagged human cMET on NI-NTA sensors, then antibody (66 nM), then human EGFR (500 nM)

T1 sequence (A0M8R7 25-932 S170N/I621T): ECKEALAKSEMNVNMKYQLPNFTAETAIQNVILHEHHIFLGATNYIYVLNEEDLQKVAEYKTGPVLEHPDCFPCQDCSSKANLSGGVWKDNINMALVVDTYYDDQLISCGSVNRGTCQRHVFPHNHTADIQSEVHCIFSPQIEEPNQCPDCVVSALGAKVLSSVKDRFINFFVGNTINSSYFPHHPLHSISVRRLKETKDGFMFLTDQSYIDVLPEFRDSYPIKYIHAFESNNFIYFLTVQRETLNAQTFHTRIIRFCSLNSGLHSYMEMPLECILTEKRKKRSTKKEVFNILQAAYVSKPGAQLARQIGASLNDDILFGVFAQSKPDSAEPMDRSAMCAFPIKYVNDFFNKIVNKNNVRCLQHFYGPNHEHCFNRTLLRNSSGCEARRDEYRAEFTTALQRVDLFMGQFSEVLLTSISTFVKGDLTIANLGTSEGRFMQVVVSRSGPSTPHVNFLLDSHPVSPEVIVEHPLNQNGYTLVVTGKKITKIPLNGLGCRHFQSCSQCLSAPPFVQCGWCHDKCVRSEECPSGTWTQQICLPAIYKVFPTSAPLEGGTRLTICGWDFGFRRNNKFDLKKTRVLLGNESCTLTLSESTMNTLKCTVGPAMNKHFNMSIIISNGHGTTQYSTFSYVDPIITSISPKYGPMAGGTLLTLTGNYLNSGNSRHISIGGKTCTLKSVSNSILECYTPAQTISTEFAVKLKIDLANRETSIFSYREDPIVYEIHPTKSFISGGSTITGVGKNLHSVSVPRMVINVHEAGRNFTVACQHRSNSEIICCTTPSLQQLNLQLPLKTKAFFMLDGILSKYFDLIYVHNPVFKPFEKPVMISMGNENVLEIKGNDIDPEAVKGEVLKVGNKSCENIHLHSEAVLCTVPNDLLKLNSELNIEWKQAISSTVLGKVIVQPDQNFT
T2 sequence (P08581 25-932): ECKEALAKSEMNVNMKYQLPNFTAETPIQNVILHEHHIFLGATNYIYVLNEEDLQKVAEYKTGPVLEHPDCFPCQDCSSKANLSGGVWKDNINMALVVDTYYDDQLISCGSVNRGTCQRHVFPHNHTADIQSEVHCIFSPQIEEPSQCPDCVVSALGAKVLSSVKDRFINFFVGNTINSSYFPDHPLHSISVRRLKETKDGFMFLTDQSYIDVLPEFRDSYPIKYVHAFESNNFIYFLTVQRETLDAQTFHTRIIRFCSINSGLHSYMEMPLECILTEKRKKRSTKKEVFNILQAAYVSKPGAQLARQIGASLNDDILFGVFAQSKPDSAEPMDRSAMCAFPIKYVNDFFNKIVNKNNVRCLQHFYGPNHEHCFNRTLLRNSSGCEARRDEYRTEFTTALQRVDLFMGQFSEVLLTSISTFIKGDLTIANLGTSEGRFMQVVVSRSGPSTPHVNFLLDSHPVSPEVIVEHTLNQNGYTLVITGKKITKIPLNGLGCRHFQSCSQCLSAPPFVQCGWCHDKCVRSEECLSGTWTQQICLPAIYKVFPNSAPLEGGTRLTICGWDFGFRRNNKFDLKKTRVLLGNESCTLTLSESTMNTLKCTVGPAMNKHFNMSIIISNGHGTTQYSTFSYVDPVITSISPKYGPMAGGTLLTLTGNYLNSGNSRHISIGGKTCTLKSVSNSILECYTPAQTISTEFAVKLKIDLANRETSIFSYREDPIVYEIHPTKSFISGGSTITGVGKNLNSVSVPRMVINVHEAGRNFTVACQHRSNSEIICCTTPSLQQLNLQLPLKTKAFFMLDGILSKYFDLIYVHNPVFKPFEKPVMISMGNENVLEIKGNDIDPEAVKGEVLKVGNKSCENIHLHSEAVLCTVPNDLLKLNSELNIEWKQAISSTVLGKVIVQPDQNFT
Mouse cMET (recombinant), sequence (P16056 25-929 limits assumed): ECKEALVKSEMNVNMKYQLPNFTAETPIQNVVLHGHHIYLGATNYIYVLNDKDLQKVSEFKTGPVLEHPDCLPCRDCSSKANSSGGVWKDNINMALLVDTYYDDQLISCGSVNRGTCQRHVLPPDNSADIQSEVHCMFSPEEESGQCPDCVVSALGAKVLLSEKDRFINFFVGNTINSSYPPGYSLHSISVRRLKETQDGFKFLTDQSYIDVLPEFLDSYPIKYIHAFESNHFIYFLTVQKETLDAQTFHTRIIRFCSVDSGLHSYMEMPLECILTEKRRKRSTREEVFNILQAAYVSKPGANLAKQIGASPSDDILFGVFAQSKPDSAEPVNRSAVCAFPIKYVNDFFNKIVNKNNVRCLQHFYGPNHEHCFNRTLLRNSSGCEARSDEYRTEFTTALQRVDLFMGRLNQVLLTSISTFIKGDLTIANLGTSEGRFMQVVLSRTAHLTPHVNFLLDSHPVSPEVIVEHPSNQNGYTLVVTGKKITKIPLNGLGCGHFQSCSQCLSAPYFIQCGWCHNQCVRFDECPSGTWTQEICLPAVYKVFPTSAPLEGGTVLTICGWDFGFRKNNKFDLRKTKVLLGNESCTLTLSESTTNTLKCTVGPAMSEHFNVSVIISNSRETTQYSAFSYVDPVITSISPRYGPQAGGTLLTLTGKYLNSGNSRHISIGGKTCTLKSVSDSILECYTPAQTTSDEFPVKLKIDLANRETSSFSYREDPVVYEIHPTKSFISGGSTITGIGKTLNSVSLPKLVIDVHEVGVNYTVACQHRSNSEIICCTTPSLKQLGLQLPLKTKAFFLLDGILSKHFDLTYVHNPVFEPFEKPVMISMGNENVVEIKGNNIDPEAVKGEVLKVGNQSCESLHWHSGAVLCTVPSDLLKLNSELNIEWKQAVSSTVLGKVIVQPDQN

Row | Binder | binding result [4] | binding result [5] | binding result [6] | binding result [7] | binding result [8] | binding result [10] | Kd [12] | koff [12] | kon [12] | Kd [13] | koff [13] | kon [13] | Kd [14] | koff [14] | kon [14] | binding result [16] | other results
1 | B1 | no binding (tested: 10 ug/ml) | no binding (tested: 10 ug/ml) | no binding (tested: 10 ug/ml) | no binding (tested: 10 ug/ml) | no binding (tested: 10 ug/ml) | no binding (tested: 10 ug/ml) |  |  |  |  |  |  |  |  |  |  | Kd [1]: 1.9 nM; koff [1]: 0.00194 s⁻¹; kon [1]: 1.04e+06 M⁻¹ s⁻¹; Kd [2]: 1.6 nM; koff [2]: 0.000882 s⁻¹; kon [2]: 563000 M⁻¹ s⁻¹; binding result [3]: no binding (tested: 10 ug/ml); binding result [9]: no binding (tested: 10 ug/ml); binding result [11]: no binding (tested: 500 nM EGFR)
2 | B2 | no binding (tested: 10 ug/ml) | no binding (tested: 10 ug/ml) | no binding (tested: 10 ug/ml) | no binding (tested: 10 ug/ml) | no binding (tested: 10 ug/ml) | no binding (tested: 10 ug/ml) | 46.6 nM | 0.00206 s⁻¹ | 44100 M⁻¹ s⁻¹ | 170 nM | 0.00601 s⁻¹ | 35400 M⁻¹ s⁻¹ | 488 nM | 0.019 s⁻¹ | 40300 M⁻¹ s⁻¹ | no binding (tested: 10 ug/ml) | binding result [15]: no binding (tested: 10 ug/ml)
3 | B3 | no binding (tested: 10 ug/ml) | no binding (tested: 10 ug/ml) | no binding (tested: 10 ug/ml) | no binding (tested: 10 ug/ml) | no binding (tested: 10 ug/ml) | no binding (tested: 10 ug/ml) | 2 nM | 0.000292 s⁻¹ | 148000 M⁻¹ s⁻¹ | 2.5 nM | 0.000288 s⁻¹ | 114000 M⁻¹ s⁻¹ | 4.4 nM | 0.000735 s⁻¹ | 167000 M⁻¹ s⁻¹ | no binding (tested: 10 ug/ml) | binding result [17]: no binding (tested: 66 nM)
